Laboratory results published in article PMC5380960.

Target: LH2-G1 (wild-type LH2 with the N-terminal fragment of Gaussia luciferase fused to its C-terminus) (UniProt O00469)
Assay: split reporter (BiFC, NanoBiT); Gaussia luciferase protein-fragment complementation; LH2-G1 and FKBP65-G2 plasmids co-transfected 1:1 into 293F cells, 48 h, passive lysis buffer, luciferase activity of total cell lysates with 20 μM native coelenterazine

Chain of UniProt O00469 (O00469 26-737): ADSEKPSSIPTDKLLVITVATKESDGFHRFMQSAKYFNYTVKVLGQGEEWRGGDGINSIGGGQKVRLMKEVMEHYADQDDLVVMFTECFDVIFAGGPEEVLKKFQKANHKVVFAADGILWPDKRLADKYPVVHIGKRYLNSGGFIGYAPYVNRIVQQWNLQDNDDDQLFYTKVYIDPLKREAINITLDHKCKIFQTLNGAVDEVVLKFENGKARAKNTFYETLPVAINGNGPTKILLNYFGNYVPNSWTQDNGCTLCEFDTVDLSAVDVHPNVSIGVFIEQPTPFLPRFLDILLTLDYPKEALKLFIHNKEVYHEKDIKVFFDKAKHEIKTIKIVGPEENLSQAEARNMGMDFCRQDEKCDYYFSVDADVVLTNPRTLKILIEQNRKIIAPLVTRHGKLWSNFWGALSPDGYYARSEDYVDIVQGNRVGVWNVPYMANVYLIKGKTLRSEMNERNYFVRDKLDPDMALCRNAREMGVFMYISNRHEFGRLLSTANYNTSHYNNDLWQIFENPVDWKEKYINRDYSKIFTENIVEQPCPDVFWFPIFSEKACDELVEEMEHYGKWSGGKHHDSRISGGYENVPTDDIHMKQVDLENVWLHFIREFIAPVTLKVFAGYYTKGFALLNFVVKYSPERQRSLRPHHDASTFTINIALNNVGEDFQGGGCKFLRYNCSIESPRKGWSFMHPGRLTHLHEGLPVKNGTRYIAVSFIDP

**Q.** How did the fold luciferase activity of co-transfected cells over either vector alone turn out when “FKBP65-G2 (FKBP65 with the C-terminal fragment of Gaussia luciferase fused to its C-terminus) (from UniProt Q96AY3 27-582) (enzyme)” was run?
**A.** The fold luciferase activity of co-transfected cells over either vector alone was 800 fold.
